Results published in patent publication US20190309060A1 (PHILOGEN S P A, published 2019).
Residue numbers refer to the chain shown, from its start. Each block holds one binder with its values, some of them ahead of it.

Columns and labels:
[1] = target: T1, human galectin-2, natively expressed (LS174T cells; human colon biopsy sections) (human, UniProt P05162 1-132); test: immunofluorescence of frozen healthy colon sections, biotinylated IgG, streptavidin-alexa 488
T1 construct: Cytoplasmic protein in fixed, methanol-permeabilized LS174T cells, and native protein in frozen colon sections; also called natively expressed galectin-2 antigen
T1 sequence: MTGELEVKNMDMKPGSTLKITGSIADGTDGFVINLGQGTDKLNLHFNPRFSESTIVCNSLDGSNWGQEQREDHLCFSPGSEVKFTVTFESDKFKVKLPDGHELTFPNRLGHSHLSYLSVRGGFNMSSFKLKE
Description: (§1) Detection of the primary antibody was performed with streptavidin-alexa 488 (Invitrogen). Blood vessels were detected using a mouse anti-human CD31 antibody (eBioscience) followed by detection with an anti-mouse alexa 594 antibody (Invitrogen). Counterstaining for cell nuclei was performed with DAPI (eBioscience).
(§2) (i) Freshly frozen colon biopsy samples from a healthy donor were stained according to already published methods (Pfaffen et al., Eur J Nucl Med Mol Imagin (2010) 37: 1559-65). Briefly, purified biotinylated antibodies in IgG format were added at the final concentration of 2 μg/ml onto the sections. Detection of the primary antibody was performed with streptavidin-alexa 488 (Invitrogen). Blood vessels were detected using a mouse anti-human CD31 antibody (eBioscience) followed by detection with an anti-mouse alexa 594 antibody (Invitrogen). Counterstaining for cell nuclei was performed with DAPI (eBioscience).
as §2, with “(ii)” for “(i)”, “Detection of the primary antibody was performed with streptavidin-alexa 488 (Invitrogen).” left out, “Counterstaining for cell nuclei was performed with DAPI (eBioscience).” left out

[2] = target: T2, human cadherin-17, native, in human ulcerative colitis biopsy sections (human, UniProt Q12864 23-832); test: immunofluorescence of frozen human ulcerative colitis sections, human IgG1 format, rabbit anti-human IgG and goat anti-rabbit Alexa 488
T2 construct: Native protein in tissue; also called cognate antigen (of AV17)
T2 sequence: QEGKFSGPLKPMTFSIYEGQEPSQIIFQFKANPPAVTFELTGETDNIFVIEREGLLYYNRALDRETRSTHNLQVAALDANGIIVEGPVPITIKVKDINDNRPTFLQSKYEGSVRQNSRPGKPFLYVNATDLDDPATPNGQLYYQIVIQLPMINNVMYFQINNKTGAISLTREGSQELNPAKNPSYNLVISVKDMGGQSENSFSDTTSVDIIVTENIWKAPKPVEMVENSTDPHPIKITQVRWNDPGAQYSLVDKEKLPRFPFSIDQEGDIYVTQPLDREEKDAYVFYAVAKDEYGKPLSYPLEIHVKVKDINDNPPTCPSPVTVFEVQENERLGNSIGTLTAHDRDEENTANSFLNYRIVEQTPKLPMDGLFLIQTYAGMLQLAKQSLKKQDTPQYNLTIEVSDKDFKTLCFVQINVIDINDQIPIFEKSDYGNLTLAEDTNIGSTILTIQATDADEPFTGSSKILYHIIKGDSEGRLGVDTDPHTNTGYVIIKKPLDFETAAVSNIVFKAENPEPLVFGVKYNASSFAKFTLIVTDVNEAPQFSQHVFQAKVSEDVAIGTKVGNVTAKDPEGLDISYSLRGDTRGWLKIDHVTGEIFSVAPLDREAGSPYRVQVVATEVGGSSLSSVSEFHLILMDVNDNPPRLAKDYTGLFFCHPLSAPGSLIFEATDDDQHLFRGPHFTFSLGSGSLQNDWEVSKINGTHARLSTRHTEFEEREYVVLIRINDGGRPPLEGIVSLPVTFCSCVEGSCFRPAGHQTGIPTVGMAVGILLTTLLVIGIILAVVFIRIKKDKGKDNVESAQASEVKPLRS
Description: Purified antibodies in human IgG1 format were added at the final concentration of 2 μg/ml to the sections. […] A positive control was performed by counterstaining for cell nuclei was performed with DAPI (eBioscience). Sections were mounted with fluorescent mounting medium (DAKO) followed by analysis using an Axioskop2 microscope with a 10× objective (Carl Zeiss AG, Jena, Germany). A stronger intensity signal in the colonic crypts region can be detected in the sections stained with CPR02, AV17 and FF06 when compared to the signal observed with an irrelevant antibody (Negative Control).
Freshly frozen human biopsy samples of Ulcerative Colitis were stained as described in the following lines. In brief, purified antibodies in human IgG1 format were added at the final concentration of 2 μg/ml to the sections. […] Further positive control was performed by counterstaining for cell nuclei was performed with DAPI (eBioscience). Sections were mounted with fluorescent mounting medium (DAKO) followed by analysis using an Axioskop2 microscope with a 10× objective (Carl Zeiss AG, Jena, Germany).

[3] = target: T3, human Agr2, native, in human colon biopsy sections (human, UniProt O95994 21-175); test: immunofluorescence of frozen healthy colon sections, biotinylated IgG, streptavidin-alexa 488
T3 construct: Native protein in healthy-donor colon and ulcerative colitis sections; also called human Agr2 antigen
T3 sequence: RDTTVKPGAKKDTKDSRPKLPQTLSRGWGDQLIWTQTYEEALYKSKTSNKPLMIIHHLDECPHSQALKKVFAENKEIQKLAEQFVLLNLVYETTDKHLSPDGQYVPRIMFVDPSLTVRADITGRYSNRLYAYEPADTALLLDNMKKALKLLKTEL
Description: as §1, §2
as §2, with “(ii)” for “(i)”, “Detection of the primary antibody was performed with streptavidin-alexa 488 (Invitrogen).” left out, “Counterstaining for cell nuclei was performed with DAPI (eBioscience).” left out

binding result [1]: binds
B1: FF06 in IgG format (antibody, V domains shown)
VH: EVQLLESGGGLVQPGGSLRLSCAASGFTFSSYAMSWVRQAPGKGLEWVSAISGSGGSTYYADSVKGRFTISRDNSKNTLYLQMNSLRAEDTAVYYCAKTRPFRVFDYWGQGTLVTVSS
VL: SSELTQDPAVSVALGQTVRITCQGDSLRSYYASWYQQKPGQAPVLVIYGKNNRPSGIPDRFSGSSSGNTASLTITGAQAEDEADYYCNSSRSRRPAVVFGGGTKLTVLG
notes: also called anti-Galectin-2 (FF06)

B2: AV17 in human IgG1 format (antibody, V domains shown)
VH: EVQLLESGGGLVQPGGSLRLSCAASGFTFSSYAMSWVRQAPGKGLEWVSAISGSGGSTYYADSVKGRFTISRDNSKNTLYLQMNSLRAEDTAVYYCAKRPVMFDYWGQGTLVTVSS
VL: B1 VL with R91L, S92P, R93S, R94P, P95Q, A96V
notes: Human IgG1 format; also called anti-cadherin 17 (AV17)
binding result [2]: binds

binding result [3]: binds
B3: CPR02 in IgG format (antibody, V domains shown)
VH: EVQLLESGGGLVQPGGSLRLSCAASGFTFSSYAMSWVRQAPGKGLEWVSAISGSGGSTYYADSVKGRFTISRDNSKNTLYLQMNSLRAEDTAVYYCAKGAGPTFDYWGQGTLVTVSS
VL: B1 VL with R91P, S92P, R93T, P95A, A96V
notes: also called anti-Agr2 (CPR02)
